{"source": "paper doi:10.1101/2024.07.30.605799", "about": "(bioRxiv, 2024)", "proteins": {"B1": {"name": "human CAD dihydroorotase (DHO) domain, wild type (domain or fragment, UniProt P27708 1456-1846, looked up)", "chain": "MTSQKLVRLPGLIDVHVHLREPGGTHKEDFASGTAAALAGGITMVCAMPNTRPPIIDAPALALAQKLAEAGARCDFALFLGASSENAGTLGTVAGSAAGLKLYLNETFSELRLDSVVQWMEHFETWPSHLPIVAHAEQQTVAAVLMVAQLTQRSVHICHVARKEEILLIKAAKARGLPVTCEVAPHHLFLSHDDLERLGPGKGEVRPELGSRQDVEALWENMAVIDCFASDHAPHTLEEKCGSRPPPGFPGLETMLPLLLTAVSEGRLSLDDLLQRLHHNPRRIFHLPPQEDTYVEVDLEHEWTIPSHMPFSKAHWTPFEGQKVKGTVRRVVLRGEVAYIDGQVLVPPGYGQDVRKWPQGAVPQLPPSAPATSEMTTTPERPRRGIPGLPD", "modifications": "carboxylated lysine K1556"}, "B2": {"name": "human CAD DHO domain bearing S1538A (domain or fragment, UniProt P27708 1456-1846, looked up)", "chain": "MTSQKLVRLPGLIDVHVHLREPGGTHKEDFASGTAAALAGGITMVCAMPNTRPPIIDAPALALAQKLAEAGARCDFALFLGAASENAGTLGTVAGSAAGLKLYLNETFSELRLDSVVQWMEHFETWPSHLPIVAHAEQQTVAAVLMVAQLTQRSVHICHVARKEEILLIKAAKARGLPVTCEVAPHHLFLSHDDLERLGPGKGEVRPELGSRQDVEALWENMAVIDCFASDHAPHTLEEKCGSRPPPGFPGLETMLPLLLTAVSEGRLSLDDLLQRLHHNPRRIFHLPPQEDTYVEVDLEHEWTIPSHMPFSKAHWTPFEGQKVKGTVRRVVLRGEVAYIDGQVLVPPGYGQDVRKWPQGAVPQLPPSAPATSEMTTTPERPRRGIPGLPD"}, "B3": {"name": "human CAD DHO domain bearing S1538L (domain or fragment, UniProt P27708 1456-1846, looked up)", "chain": "MTSQKLVRLPGLIDVHVHLREPGGTHKEDFASGTAAALAGGITMVCAMPNTRPPIIDAPALALAQKLAEAGARCDFALFLGALSENAGTLGTVAGSAAGLKLYLNETFSELRLDSVVQWMEHFETWPSHLPIVAHAEQQTVAAVLMVAQLTQRSVHICHVARKEEILLIKAAKARGLPVTCEVAPHHLFLSHDDLERLGPGKGEVRPELGSRQDVEALWENMAVIDCFASDHAPHTLEEKCGSRPPPGFPGLETMLPLLLTAVSEGRLSLDDLLQRLHHNPRRIFHLPPQEDTYVEVDLEHEWTIPSHMPFSKAHWTPFEGQKVKGTVRRVVLRGEVAYIDGQVLVPPGYGQDVRKWPQGAVPQLPPSAPATSEMTTTPERPRRGIPGLPD", "modifications": "carboxylated lysine K1556"}, "B4": {"name": "human CAD DHO domain bearing W1581R (domain or fragment, UniProt P27708 1456-1846, looked up)", "chain": "MTSQKLVRLPGLIDVHVHLREPGGTHKEDFASGTAAALAGGITMVCAMPNTRPPIIDAPALALAQKLAEAGARCDFALFLGASSENAGTLGTVAGSAAGLKLYLNETFSELRLDSVVQWMEHFETRPSHLPIVAHAEQQTVAAVLMVAQLTQRSVHICHVARKEEILLIKAAKARGLPVTCEVAPHHLFLSHDDLERLGPGKGEVRPELGSRQDVEALWENMAVIDCFASDHAPHTLEEKCGSRPPPGFPGLETMLPLLLTAVSEGRLSLDDLLQRLHHNPRRIFHLPPQEDTYVEVDLEHEWTIPSHMPFSKAHWTPFEGQKVKGTVRRVVLRGEVAYIDGQVLVPPGYGQDVRKWPQGAVPQLPPSAPATSEMTTTPERPRRGIPGLPD"}, "B5": {"name": "human CAD DHO domain bearing H1687R (domain or fragment, UniProt P27708 1456-1846, looked up)", "chain": "MTSQKLVRLPGLIDVHVHLREPGGTHKEDFASGTAAALAGGITMVCAMPNTRPPIIDAPALALAQKLAEAGARCDFALFLGASSENAGTLGTVAGSAAGLKLYLNETFSELRLDSVVQWMEHFETWPSHLPIVAHAEQQTVAAVLMVAQLTQRSVHICHVARKEEILLIKAAKARGLPVTCEVAPHHLFLSHDDLERLGPGKGEVRPELGSRQDVEALWENMAVIDCFASDRAPHTLEEKCGSRPPPGFPGLETMLPLLLTAVSEGRLSLDDLLQRLHHNPRRIFHLPPQEDTYVEVDLEHEWTIPSHMPFSKAHWTPFEGQKVKGTVRRVVLRGEVAYIDGQVLVPPGYGQDVRKWPQGAVPQLPPSAPATSEMTTTPERPRRGIPGLPD"}, "B6": {"name": "human CAD ATC domain bearing P2186S (domain or fragment, UniProt P27708 1917-2225, looked up)", "chain": "LLHSLVGQHILSVQQFTKDQMSHLFNVAHTLRMMVQKERSLDILKGKVMASMFYEVSTRTSSSFAAAMARLGGAVLSFSEATSSVQKGESLADSVQTMSCYADVVVLRHPQPGAVELAAKHCRRPVINAGDGVGEHPTQALLDIFTIREELGTVNGMTITMVGDLKHGRTVHSLACLLTQYRVSLRYVAPPSLRMPPTVRAFVASRGTKQEEFESIEEALPDTDVLYMTRIQKERFGSTQEYEACFGQFILTPHIMTRAKKKMVVMHPMSRVNEISVEVDSDPRAAYFRQAENGMYIRMALLATVLGRF"}}}
{"target": "the molecule itself", "assay": "SEC"}
{"protein": "B1", "stoichiometry N": 2}
{"protein": "B2", "stoichiometry N": 2}
{"protein": "B3", "stoichiometry N": 2}
{"protein": "B4", "stoichiometry N": 2}
{"protein": "B5", "stoichiometry N": 2}
{"target": "the molecule itself", "assay": "SEC", "remark": "another data set of the same source"}
{"protein": "B6", "stoichiometry N": 3}
